Source: article doi:10.1101/2025.09.14.676084, “A validated antibody toolbox for ALS research” (bioRxiv, 2025)

Molecular target: T1, PFN1 (Homo sapiens (assumed; ALS risk gene …, UniProt P07737)
T1 construct: PFN1, the protein encoded by the ALS risk gene PFN1; Surmised: endogenous protein in the lysate of a human cell line, as in the YCharOS workflow; also called profilin-1 (protein encoded by the ALS risk gene PFN1)
Experiment: immunoprecipitation, detected by immunoblot; the antibody was used to immunoprecipitate its target; counted as successful when the target protein was specifically enriched relative to the starting material, confirmed by immunoblot of the immunoprecipitated protein
Details: one partner purified

T1 sequence (P07737 whole entry): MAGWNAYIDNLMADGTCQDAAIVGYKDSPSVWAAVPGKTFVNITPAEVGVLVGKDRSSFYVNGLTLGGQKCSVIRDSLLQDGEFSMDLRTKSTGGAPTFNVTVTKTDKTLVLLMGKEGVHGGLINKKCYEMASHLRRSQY

B1: scFv against PFN1 (recombinant single-chain variable fragment antibody generated by the Structural Genomics Consortium) (scFv, V domains shown)
VH: EVQLLESGGGLVQPGGSLRLSCAASGFTFYSSYMYWVRQAPGKGLEWVSSISGYGGYTYYADSVKGRFTISRDNSKNTLYLQMNSLRAEDTAVYYCARWDGYMDYWGQGTLVTVSS
VL: DIQMTQSPSSLSASVGDRVTITCRASQSISSYLNWYQQKPGKAPKLLIYAASSLQSGVPSRFSGSGSGTDFTLTISSLQPEDFATYYCQQYWDYGLPTFGQGTKLEIK
notes: selected by phage display against recombinant biotinylated antigen; plasmid deposited at Addgene (id not given); also called the scFv against PFN1; custom scFv antibody
binding result: binds
